The values that follow come from patent US20100305304A1 (COMPLIX, published 2010).

Data set [1] deals with the molecule itself. Kind of data set: self-association of the peptide chains into a homotrimer; sedimentation equilibrium ultracentrifugation.
Data set [2] deals with the molecule itself. Kind of data set: self-association of the peptide chains into a homotrimer; CD thermal unfolding curve fitted to a monomer-trimer equilibrium. The protocol: The said synthesized peptide was dissolved at a concentration of 292 microM in 20 mM phosphate buffer (PBS), 150 mM NaCl, pH 7.2. The CD spectra were measured between […], at 5 and 90 degrees Celsius (FIG. 3). The spectrum at 5 degrees Celsius was indicative of a high alpha-helical secondary structure content, in agreement with the expectation that all heptad regions, but not all of the flanking residues, would assemble as alpha-helical coiled coils.
To analyse whether the temperature-induced transition between helical and nonhelical states was reversible, a forward (up) and backward (down) thermal scan was performed on the same sample, by recording the CD signal at […] as a function of temperature at a scanning rate of about 1 degree Celsius per minute (FIG. 4). It was observed that the up and down scans almost perfectly coincided, thereby confirming the quantitative unfolding and refolding of the peptides in the sample.
FIG. 5 represents fitting of a theoretic equation for trimeric association to experimental data. The experimental data are taken from FIG. 4, curve labeled “UP”. The theoretic equations used are listed supra. The fitted parameters (fitting results) are listed at the right in FIG. 5. “Transit. T” corresponds to Tₜ, but is expressed here in degrees Celsius. The parameter “delta Cₚ” was kept constant at 3.0 kJ mol⁻¹ K⁻¹. […]

B1: Q2aI peptide (Ac-MSIEEIQKQIAAIQKQIAAIQKQIYRMTP-NH2) (peptide)
peptide: Ac-MSIEEIQKQIAAIQKQIAAIQKQIYRMTP-NH2
notes: Synthetic peptide; also called untagged peptide
In the case of B1, in data set [1], the binding result is listed as “binds”.

B2: reference peptide Q2a (Ac-MSIEEIQKQQAAIQKQIAAIQKQIYRMTP-NH2) (peptide)
peptide: Ac-MSIEEIQKQQAAIQKQIAAIQKQIYRMTP-NH2
notes: Synthetic peptide; Three copies associate non-covalently into a parallel alpha-helical coiled coil; also called untagged peptide
In the case of B2, the binding result in data set [2] is recorded as “binds”.
